This passage reports response results from doi:10.1101/2025.11.20.689565.

Experiment [1] concerns the target T1, C. elegans γ-tubulin complex (γTuC): γ-tubulin TBG-1, GCP2 GIP-2-5Myc, GCP3 GIP-1 and MZT-1, P34475;G5EF84. Put plainly: pull-down on γTuC-coated beads, anti-MBP immunoblot. To be noted: chain shown with the change, binding 2 hours at 4°C, scale: band intensity relative to SPD-5 1-113 without PLK1.
The target of experiment [2] is T1, C. elegans γ-tubulin complex (γTuC): …. Put plainly: pull-down on γTuC-coated beads, anti-SPD-5 immunoblot. The note with it: chain shown with the change, binding 2 hours at 4°C, scale: band intensity relative to SPD-5 135-473 without PLK1.
Setting [3] is: +PLK1 preincubation (2.0 μM fragment, 500 nM PLK1(T194D), 0.2 mM ATP, 1 hour at 23°C), 75 nM SPD-5 ….

T1 sequence (chain, as listed by the source, chain 1 of 4): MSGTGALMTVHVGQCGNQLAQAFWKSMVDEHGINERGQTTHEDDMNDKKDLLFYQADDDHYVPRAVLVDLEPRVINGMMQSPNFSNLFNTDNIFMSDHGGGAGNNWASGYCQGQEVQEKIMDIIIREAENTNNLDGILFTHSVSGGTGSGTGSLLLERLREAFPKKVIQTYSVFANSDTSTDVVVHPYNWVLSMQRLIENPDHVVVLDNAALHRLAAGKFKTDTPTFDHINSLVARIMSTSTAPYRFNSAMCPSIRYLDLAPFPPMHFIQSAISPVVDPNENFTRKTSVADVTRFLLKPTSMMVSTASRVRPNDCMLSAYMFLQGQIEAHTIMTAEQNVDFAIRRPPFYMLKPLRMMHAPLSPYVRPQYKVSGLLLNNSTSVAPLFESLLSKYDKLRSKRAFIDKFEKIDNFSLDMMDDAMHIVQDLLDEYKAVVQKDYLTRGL
T1 sequence (chain, as listed by the source, chain 2 of 4): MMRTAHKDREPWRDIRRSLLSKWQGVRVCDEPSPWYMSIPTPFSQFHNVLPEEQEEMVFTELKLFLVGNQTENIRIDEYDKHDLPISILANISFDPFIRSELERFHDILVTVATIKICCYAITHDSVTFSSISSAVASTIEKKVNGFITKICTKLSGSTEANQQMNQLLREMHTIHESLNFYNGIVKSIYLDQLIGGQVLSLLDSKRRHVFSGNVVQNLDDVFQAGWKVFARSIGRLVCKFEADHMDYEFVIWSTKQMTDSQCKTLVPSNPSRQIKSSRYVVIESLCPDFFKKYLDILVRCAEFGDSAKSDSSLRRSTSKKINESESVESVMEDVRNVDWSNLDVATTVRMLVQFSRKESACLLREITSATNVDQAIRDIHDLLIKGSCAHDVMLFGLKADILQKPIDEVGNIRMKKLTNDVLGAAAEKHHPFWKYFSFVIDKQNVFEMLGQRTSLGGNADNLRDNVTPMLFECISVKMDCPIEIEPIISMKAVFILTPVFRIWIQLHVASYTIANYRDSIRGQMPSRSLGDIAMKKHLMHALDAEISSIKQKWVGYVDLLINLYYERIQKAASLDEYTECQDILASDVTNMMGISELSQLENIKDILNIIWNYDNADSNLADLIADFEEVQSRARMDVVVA
T1 sequence (chain, as listed by the source, chain 3 of 4): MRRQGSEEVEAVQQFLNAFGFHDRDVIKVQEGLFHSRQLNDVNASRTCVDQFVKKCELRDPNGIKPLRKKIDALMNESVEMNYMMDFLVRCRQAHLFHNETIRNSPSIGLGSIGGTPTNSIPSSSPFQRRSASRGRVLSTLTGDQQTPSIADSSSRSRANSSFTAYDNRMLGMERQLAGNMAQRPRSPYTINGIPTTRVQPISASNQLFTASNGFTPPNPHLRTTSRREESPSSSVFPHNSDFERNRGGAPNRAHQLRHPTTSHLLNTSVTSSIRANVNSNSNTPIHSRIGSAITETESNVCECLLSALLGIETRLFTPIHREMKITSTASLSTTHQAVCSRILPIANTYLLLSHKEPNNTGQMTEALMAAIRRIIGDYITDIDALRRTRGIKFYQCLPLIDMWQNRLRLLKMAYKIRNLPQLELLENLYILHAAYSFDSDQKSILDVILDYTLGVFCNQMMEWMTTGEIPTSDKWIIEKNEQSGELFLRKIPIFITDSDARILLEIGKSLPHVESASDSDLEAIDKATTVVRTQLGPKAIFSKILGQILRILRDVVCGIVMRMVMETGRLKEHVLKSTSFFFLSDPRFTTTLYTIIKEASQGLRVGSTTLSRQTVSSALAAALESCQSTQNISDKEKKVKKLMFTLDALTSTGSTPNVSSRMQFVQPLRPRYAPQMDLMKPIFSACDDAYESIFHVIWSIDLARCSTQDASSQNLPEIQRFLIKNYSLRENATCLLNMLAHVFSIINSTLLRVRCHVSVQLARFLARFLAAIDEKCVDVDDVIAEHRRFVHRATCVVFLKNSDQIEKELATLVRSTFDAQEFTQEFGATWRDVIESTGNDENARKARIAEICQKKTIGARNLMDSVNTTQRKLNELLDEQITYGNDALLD
T1 sequence (chain, as listed by the source, chain 4 of 4): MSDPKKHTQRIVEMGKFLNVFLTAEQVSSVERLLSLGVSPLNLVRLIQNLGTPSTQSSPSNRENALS

B1: MBP-6His-HA (M6HH)-tagged SPD-5 aa 1-113, PLK1-phosphorylated, P91349 S5A; S11A (protein)
chain: MEDNAVLNEDANLEHVEGQPRRSMSQPVLNVEGDKRTSSTSATQQQVLSGAFSSADVRSIPIIQTWEENKALKTKITILRGELQMYQRRYSEAKEASQKRVKEVMDDYVDLKL
With B1, in experiment [1] (setting [3]), the response is 4.7.

B2: MBP-6His-HA (M6HH)-tagged SPD-5 aa 1-113, not phosphorylated, P91349 S5A; S11A (protein)
chain: MEDNAVLNEDANLEHVEGQPRRSMSQPVLNVEGDKRTSSTSATQQQVLSGAFSSADVRSIPIIQTWEENKALKTKITILRGELQMYQRRYSEAKEASQKRVKEVMDDYVDLKL
In turn, B2 registered a response in experiment [1] (no PLK1, 75 nM SPD-5 fragment) of 0.6.

B3: untagged SPD-5 aa 135-473, PLK1-phosphorylated, P91349 S170A; T178A; T198A (protein)
chain: MQSRIETSEDNFARQMKEFEAQKHAMEERIKELELAATDANNTAVGSFRGTLDDILKKNDPDFALTSGYEERKINDLEAKLLSEIDKVAELEDHIQQLRQELDDQSARLADSENVRAQLEAATGQGILGAAGNAMVPNSTFMIGNGRESQTRDQLNYIDDLETKLADAKKENDKARQALVEYMNKCSKLEHEIRTMVKNSTFDSSSMLLGGQTSDELKIQIGKVNGELNVLRAENRELRIRCDQLTGGDGNLSISLGQSRLMAGIATNDVDSIGQGNETGGTSMRILPRESQLDDLEESKLPLMDTSSAVRNQQQFASMWEDFESVKDSLQNNHNDTLE
In experiment [2] (setting [3]), B3 yielded a response of 0.1.

B4: untagged SPD-5 aa 135-473, PLK1-phosphorylated, P91349 S170A; T178A; T198A; T274A; T335A; S339A; S340A (protein)
chain: MQSRIETSEDNFARQMKEFEAQKHAMEERIKELELAATDANNTAVGSFRGTLDDILKKNDPDFALTSGYEERKINDLEAKLLSEIDKVAELEDHIQQLRQELDDQSARLADSENVRAQLEAATGQGILGAAGNAMVPNSAFMIGNGRESQTRDQLNYIDDLETKLADAKKENDKARQALVEYMNKCSKLEHEIRTMVKNSAFDSAAMLLGGQTSDELKIQIGKVNGELNVLRAENRELRIRCDQLTGGDGNLSISLGQSRLMAGIATNDVDSIGQGNETGGTSMRILPRESQLDDLEESKLPLMDTSSAVRNQQQFASMWEDFESVKDSLQNNHNDTLE
As for B4, the response in experiment [2] (setting [3]) is 0.

B5: untagged SPD-5 aa 135-473, PLK1-phosphorylated, P91349 T274A; T335A; S339A; S340A (protein)
chain: MQSRIETSEDNFARQMKEFEAQKHAMEERIKELELSATDANNTTVGSFRGTLDDILKKNDPDFTLTSGYEERKINDLEAKLLSEIDKVAELEDHIQQLRQELDDQSARLADSENVRAQLEAATGQGILGAAGNAMVPNSAFMIGNGRESQTRDQLNYIDDLETKLADAKKENDKARQALVEYMNKCSKLEHEIRTMVKNSAFDSAAMLLGGQTSDELKIQIGKVNGELNVLRAENRELRIRCDQLTGGDGNLSISLGQSRLMAGIATNDVDSIGQGNETGGTSMRILPRESQLDDLEESKLPLMDTSSAVRNQQQFASMWEDFESVKDSLQNNHNDTLE
In experiment [2] (setting [3]), B5 displayed a response of 2.8.

B6: untagged SPD-5 aa 135-473, not phosphorylated, P91349 S170A; T178A; T198A; T274A; T335A; S339A; S340A (protein)
chain: MQSRIETSEDNFARQMKEFEAQKHAMEERIKELELAATDANNTAVGSFRGTLDDILKKNDPDFALTSGYEERKINDLEAKLLSEIDKVAELEDHIQQLRQELDDQSARLADSENVRAQLEAATGQGILGAAGNAMVPNSAFMIGNGRESQTRDQLNYIDDLETKLADAKKENDKARQALVEYMNKCSKLEHEIRTMVKNSAFDSAAMLLGGQTSDELKIQIGKVNGELNVLRAENRELRIRCDQLTGGDGNLSISLGQSRLMAGIATNDVDSIGQGNETGGTSMRILPRESQLDDLEESKLPLMDTSSAVRNQQQFASMWEDFESVKDSLQNNHNDTLE
On to B6, for which, in experiment [2] (no PLK1, 75 nM SPD-5 fragment), the response worked out at 0.1.

B7: untagged SPD-5 aa 135-473, not phosphorylated, P91349 T274A; T335A; S339A; S340A (protein)
chain: MQSRIETSEDNFARQMKEFEAQKHAMEERIKELELSATDANNTTVGSFRGTLDDILKKNDPDFTLTSGYEERKINDLEAKLLSEIDKVAELEDHIQQLRQELDDQSARLADSENVRAQLEAATGQGILGAAGNAMVPNSAFMIGNGRESQTRDQLNYIDDLETKLADAKKENDKARQALVEYMNKCSKLEHEIRTMVKNSAFDSAAMLLGGQTSDELKIQIGKVNGELNVLRAENRELRIRCDQLTGGDGNLSISLGQSRLMAGIATNDVDSIGQGNETGGTSMRILPRESQLDDLEESKLPLMDTSSAVRNQQQFASMWEDFESVKDSLQNNHNDTLE
Turning to B7, the response in experiment [2] (no PLK1, 75 nM SPD-5 fragment) was determined as 0.1.

B8: untagged SPD-5 aa 135-473, not phosphorylated, P91349 S170A; T178A; T198A (protein)
chain: MQSRIETSEDNFARQMKEFEAQKHAMEERIKELELAATDANNTAVGSFRGTLDDILKKNDPDFALTSGYEERKINDLEAKLLSEIDKVAELEDHIQQLRQELDDQSARLADSENVRAQLEAATGQGILGAAGNAMVPNSTFMIGNGRESQTRDQLNYIDDLETKLADAKKENDKARQALVEYMNKCSKLEHEIRTMVKNSTFDSSSMLLGGQTSDELKIQIGKVNGELNVLRAENRELRIRCDQLTGGDGNLSISLGQSRLMAGIATNDVDSIGQGNETGGTSMRILPRESQLDDLEESKLPLMDTSSAVRNQQQFASMWEDFESVKDSLQNNHNDTLE
The molecule B8 registered a response in experiment [2] (no PLK1, 75 nM SPD-5 fragment) of 0.7.
